Earlier results on 4 substances are cited in paper PMC3433420.

Read-outs that look alike come from different tables or passages of the source.

Some targets named below: ABL1 (Homo sapiens) (UniProt P00519); LYN (Homo sapiens) (UniProt P07948); CRK (Homo sapiens) (UniProt P46108); PIK3R1-NC (Homo sapiens) (UniProt P27986); SHC4 (Homo sapiens) (UniProt Q6S5L8); SHF (Homo sapiens) (UniProt Q7M4L6); BCAR3 (Homo sapiens) (UniProt O75815); SYK-C (Homo sapiens) (UniProt P43405); SHC1 (Homo sapiens) (UniProt P29353); RASA1-NC (Homo sapiens) (UniProt P20936); PTPN6-C (Homo sapiens) (UniProt P29350); SLA2 (Homo sapiens) (UniProt Q9H6Q3); SHC1-PTB (Homo sapiens) (UniProt P29353); SOCS1 (Homo sapiens) (UniProt O15524); PLCG1-NC (Homo sapiens) (UniProt P19174); PIK3R3-NC (Homo sapiens) (UniProt Q92569); TNS4 (Homo sapiens) (UniProt Q8IZW8); SHB (Homo sapiens) (UniProt Q15464).

Conditions in all cases: cited from earlier work
The target of data set [1] is PIK3R3-N (Homo sapiens) (UniProt Q92569).
The target of data set [2] is RASA1-N (Homo sapiens) (UniProt P20936).
Sequence of RASA1-N (Homo sapiens) (P20936 176-446): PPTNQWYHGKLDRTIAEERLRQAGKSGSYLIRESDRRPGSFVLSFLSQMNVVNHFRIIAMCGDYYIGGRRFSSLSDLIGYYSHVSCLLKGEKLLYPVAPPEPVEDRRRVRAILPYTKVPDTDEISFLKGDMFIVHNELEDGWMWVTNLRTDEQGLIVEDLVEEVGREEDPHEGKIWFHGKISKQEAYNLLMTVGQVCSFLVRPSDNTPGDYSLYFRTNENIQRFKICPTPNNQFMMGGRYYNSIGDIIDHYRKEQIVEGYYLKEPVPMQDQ
Data set [3] deals with YES1 (Homo sapiens) (UniProt P07947).
Sequence of YES1 (Homo sapiens) (P07947 153-260): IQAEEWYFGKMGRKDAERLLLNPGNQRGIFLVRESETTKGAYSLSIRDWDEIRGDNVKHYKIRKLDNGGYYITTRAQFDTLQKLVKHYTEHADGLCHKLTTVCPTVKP
For data set [4], the target named is ITK (Homo sapiens) (UniProt Q08881).
Sequence of ITK (Homo sapiens) (Q08881 234-343): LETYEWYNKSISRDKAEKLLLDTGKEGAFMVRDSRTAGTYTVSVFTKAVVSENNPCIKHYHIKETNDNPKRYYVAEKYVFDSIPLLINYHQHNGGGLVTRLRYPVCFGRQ
Data set [5] has as its target YES1 (Homo sapiens) (UniProt P07947). This is another data set of the same source.
Data set [6] addresses ITK (Homo sapiens) (UniProt Q08881). This is another data set of the same source.
Data set [7] has as its target SHC3 (Homo sapiens) (UniProt Q92529).
Data set [8] shares this target. The source holds these as a separate data set.
Data set [9] has as its target RASA1-N (Homo sapiens) (UniProt P20936). This is another data set of the same source.
The target of data set [10] is PIK3R1-N (Homo sapiens) (UniProt P27986).
Sequence of PIK3R1-N (Homo sapiens) (P27986 328-723): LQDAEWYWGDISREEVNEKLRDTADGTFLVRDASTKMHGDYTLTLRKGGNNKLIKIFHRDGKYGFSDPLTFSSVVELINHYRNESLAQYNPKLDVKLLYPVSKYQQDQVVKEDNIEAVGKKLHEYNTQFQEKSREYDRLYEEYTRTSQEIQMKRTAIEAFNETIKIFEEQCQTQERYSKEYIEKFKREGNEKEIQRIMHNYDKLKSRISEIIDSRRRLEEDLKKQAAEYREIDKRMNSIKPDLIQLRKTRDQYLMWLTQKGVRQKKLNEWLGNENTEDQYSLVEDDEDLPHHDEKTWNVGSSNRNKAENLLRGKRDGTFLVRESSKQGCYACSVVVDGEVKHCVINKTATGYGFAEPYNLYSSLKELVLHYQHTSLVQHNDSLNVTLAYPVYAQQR
Data set [11] addresses PIK3R3-N (Homo sapiens) (UniProt Q92569). The source holds these as a separate data set.
Data set [12] deals with PIK3R1-N (Homo sapiens) (UniProt P27986). The source holds these as a separate data set.

Sequence of SHC3 (Homo sapiens) (Q92529 494-594): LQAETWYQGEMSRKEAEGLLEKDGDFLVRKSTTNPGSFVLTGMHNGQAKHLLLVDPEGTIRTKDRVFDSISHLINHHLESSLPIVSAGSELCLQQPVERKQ
Sequence of PTPN6-C (Homo sapiens) (P29350 1-218): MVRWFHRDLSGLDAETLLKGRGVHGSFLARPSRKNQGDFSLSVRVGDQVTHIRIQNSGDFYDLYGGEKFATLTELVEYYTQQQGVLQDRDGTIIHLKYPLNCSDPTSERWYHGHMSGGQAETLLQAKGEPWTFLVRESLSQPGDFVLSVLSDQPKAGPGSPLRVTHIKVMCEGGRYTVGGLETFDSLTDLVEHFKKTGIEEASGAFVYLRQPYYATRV
Sequence of SHF (Homo sapiens) (Q7M4L6 318-423): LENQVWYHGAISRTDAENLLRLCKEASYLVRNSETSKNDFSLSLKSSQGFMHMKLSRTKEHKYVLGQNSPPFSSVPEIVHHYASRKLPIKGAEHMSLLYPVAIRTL
Sequence of SOCS1 (Homo sapiens) (O15524 74-179): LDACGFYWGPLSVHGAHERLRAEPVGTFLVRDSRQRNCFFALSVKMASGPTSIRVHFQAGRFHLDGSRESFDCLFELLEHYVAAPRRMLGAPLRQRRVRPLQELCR
Sequence of SLA2 (Homo sapiens) (Q9H6Q3 89-196): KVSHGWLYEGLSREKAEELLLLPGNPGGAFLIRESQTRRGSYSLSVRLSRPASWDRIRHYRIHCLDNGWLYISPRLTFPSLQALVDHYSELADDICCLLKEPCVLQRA
Sequence of TNS4 (Homo sapiens) (Q8IZW8 444-561): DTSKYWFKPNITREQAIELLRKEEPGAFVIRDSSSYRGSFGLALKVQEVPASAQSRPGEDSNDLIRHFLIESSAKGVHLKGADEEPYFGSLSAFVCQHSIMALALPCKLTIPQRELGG
Sequence of BCAR3 (Homo sapiens) (O75815 149-258): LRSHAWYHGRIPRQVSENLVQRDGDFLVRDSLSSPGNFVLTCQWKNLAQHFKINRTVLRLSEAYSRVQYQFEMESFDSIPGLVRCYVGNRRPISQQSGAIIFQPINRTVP
Sequence of SHC4 (Homo sapiens) (Q6S5L8 521-622): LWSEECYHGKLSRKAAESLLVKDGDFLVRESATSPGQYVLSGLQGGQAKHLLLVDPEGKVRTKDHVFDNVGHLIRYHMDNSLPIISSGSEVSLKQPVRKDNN
Sequence of PIK3R1-NC (Homo sapiens) (P27986 328-723): as the sequence (P27986 328-723) above
Sequence of LYN (Homo sapiens) (P07948 124-231): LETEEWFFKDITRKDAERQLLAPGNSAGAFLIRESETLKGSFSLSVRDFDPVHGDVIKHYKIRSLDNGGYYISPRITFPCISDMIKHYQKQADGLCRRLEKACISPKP
Sequence of RASA1-NC (Homo sapiens) (P20936 176-446): as the sequence (P20936 176-446) above
Sequence of SHB (Homo sapiens) (Q15464 405-509): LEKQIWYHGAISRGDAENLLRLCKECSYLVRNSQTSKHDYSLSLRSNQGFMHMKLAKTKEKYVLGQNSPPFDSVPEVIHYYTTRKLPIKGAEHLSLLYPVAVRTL
Sequence of PLCG1-NC (Homo sapiens) (P19174 545-761): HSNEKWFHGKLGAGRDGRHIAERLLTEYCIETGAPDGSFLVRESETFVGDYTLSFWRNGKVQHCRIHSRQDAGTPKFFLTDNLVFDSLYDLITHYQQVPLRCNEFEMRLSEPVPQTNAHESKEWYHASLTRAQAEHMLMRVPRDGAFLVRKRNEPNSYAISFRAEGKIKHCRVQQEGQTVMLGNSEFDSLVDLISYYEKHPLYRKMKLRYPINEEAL
Sequence of CRK (Homo sapiens) (P46108 8-123): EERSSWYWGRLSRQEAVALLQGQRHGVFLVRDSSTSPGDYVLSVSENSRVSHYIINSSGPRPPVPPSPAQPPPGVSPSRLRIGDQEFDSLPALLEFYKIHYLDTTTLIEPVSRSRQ
Sequence of ABL1 (Homo sapiens) (P00519 122-222): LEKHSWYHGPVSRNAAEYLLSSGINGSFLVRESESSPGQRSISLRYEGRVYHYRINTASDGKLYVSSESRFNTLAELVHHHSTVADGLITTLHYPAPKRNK
Sequence of SHC1 (Homo sapiens) (P29353 483-583): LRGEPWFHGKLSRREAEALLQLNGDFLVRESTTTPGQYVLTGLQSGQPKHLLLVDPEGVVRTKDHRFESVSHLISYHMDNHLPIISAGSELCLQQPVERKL
Sequence of SHC1-PTB (Homo sapiens) (P29353 483-583): as above

For the substance …pYEEMRAFQ, the apparent Kd (screen) is 58 nM with PIK3R3-N (Homo sapiens) [1]; 633 nM with ABL1 (Homo sapiens); 340 nM with LYN (Homo sapiens); 1500 nM with CRK (Homo sapiens); 1350 nM with RASA1-N (Homo sapiens) [2]; 49 nM with PIK3R1-NC (Homo sapiens). Moreover, the apparent Kd (screen) with YES1 (Homo sapiens) [3] is 2000 nM.

As for …pYWDQDPPE, the apparent Kd (screen) is 2000 nM with SHC4 (Homo sapiens); 586 nM with SHF (Homo sapiens); 224 nM with ITK (Homo sapiens) [4]; 2000 nM with BCAR3 (Homo sapiens); 219 nM with YES1 (Homo sapiens) [5]; 1970 nM in the data set with SYK-C (Homo sapiens). In addition, the apparent Kd (screen) with SHC1 (Homo sapiens) was 2000 nM; in the data set with RASA1-NC (Homo sapiens) it was 224 nM.

Take …pYLVPQQGF: the apparent Kd (screen) in the data set with PTPN6-C (Homo sapiens) is 2000 nM; with ITK (Homo sapiens) [6], 445 nM; with SLA2 (Homo sapiens) it was 2000 nM; with SHC1-PTB (Homo sapiens) it was 2000 nM; with SHC3 (Homo sapiens) [7] it was 2000 nM; with SOCS1 (Homo sapiens) it was 2000 nM.

For …pYLIPQQGFd, the apparent Kd (screen) in the data set with SHC3 (Homo sapiens) [8] was 216 nM; with PLCG1-NC (Homo sapiens), 794 nM; in the data set with RASA1-N (Homo sapiens) [9] it was 488 nM; with PIK3R3-NC (Homo sapiens), 203 nM; with TNS4 (Homo sapiens) it was 922 nM; with PIK3R1-N (Homo sapiens) [10], 646 nM. In addition, the apparent Kd (screen) is 722 nM in the data set with PIK3R3-N (Homo sapiens) [11], 899 nM in the data set with PIK3R1-N (Homo sapiens) [12] and 1990 nM with SHB (Homo sapiens).
